In this assay the target is T1, linear (M1)-tetraubiquitin (UniProt P0CG48 1-76; P0CG48 1-76; P0CG48 1-76; P0CG48 1-76).
T1 construct: ubiquitin, first of four units joined head to tail (Met1-linked); ubiquitin, second unit; ubiquitin, third unit; ubiquitin, fourth unit; Four ubiquitins on one chain, N-terminal Met1 linked to the C-terminus of the unit before; also called linear (M1)-linked tetraubiquitin; source: bought: Boston Biochem
In words: pull-down; GST-fusion proteins with tetraubiquitin (3.4 μg), then glutathione Sepharose at 4°C 1 h; bound ubiquitin detected by anti-ubiquitin immunoblotting. The note with it: both partners purified. A general note: In western blotting, separated proteins are transferred to a membrane and probed.

This note sets out measurements from article PMC8017197 (Frontiers in Immunology, 2021).

T1 sequence (P0CG48 1-304, one chain of several): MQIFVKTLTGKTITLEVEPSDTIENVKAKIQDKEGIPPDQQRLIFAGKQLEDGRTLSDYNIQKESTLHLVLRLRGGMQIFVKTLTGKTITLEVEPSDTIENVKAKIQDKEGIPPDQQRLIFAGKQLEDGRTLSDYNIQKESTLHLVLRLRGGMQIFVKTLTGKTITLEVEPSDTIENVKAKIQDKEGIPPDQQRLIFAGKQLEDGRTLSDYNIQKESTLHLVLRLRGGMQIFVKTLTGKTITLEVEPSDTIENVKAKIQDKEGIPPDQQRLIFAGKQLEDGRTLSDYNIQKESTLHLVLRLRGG

B1: GST-fused UBZ domain (a.a. 394-446) of NDP52 (domain or fragment, human, UniProt Q13137 394-446, looked up)
chain: IKKCPICKADDICDHTLEQQQMQPLCFNCPICDKIFPATEKQIFEDHVFCHSL
notes: NDP52 (CALCOCO2), human, UBZ domain, a.a; Vector pGEX6p-1; also called GST-fused NDP52-UBZ domain; source: E. coli BL21 (DE3)pLysS, purified with a GSTrap column
For B1, the binding result is listed as “binds”.
